Positions count from the first letter of the chain named. Numbers in names are those of the source.
Key:
APOL1 G0 (human) = APOL1 G0 (human) (UniProt O14791)
[1] = biological target: the molecule itself; experiment: cross-linking; disulfide trapping between substituted cysteines, no membranes; protein (~0.159 uM) in 0.2 ml buffer (5 mM succinate, 5 mM Hepes, 0.5 mM KCl, 5 mM CaCl2), room temperature, 1 h at pH 5.6 followed by 1 h at pH 7.2; nonreducing SDS-PAGE, silver stain
[2] = biological target: the molecule itself; experiment: cross-linking; untreated control protein (lane c): thawed on ice from -80 °C and immediately diluted into SDS sample buffer; nonreducing SDS-PAGE, silver stain
APOL1 LZA 1 (human) = APOL1 LZA 1 (human) (UniProt O14791)

B1: APOL1 G0 (natural protein)
chain: EEAGARVQQNVPSGTDTGDPQSKPLGDWAAGTMDPESSIFIEDAIKYFKEKVSTQNLLLLLTDNEAWNGFVAAAELPRNEADELRKALDNLARQMIMKDKNWHDKGQQYRNWFLKEFPRLKSKLEDNIRRLRALADGVQKVHKGTTIANVVSGSLSISSGILTLVGMGLAPFTEGGSLVLLEPGMELGITAALTGITSSTIDYGKKWWTQAQAHDLVIKSLDKLKEVKEFLGENISNFLSLAGNTYQLTRGIGKDIRALRRARANLQSVPHASASRPRVTEPISAESGEQVERVNEPSILEMSRGVKLTDVAPVSFFLVLDVVYLVYESKHLHEGAKSETAEELKKVAQELEEKLNILNNNYKILQADQEL
trypanosome lysis (T. b. brucei, 24 h), IC50 (APOL1 G0 (human)): 0.125 µg/mL

B2: APOL1 A363C (natural protein, human, UniProt O14791 28-398, looked up)
chain: B1 chain with A336C
notes: Apolipoprotein L-I (APOL1) G0, human, aa 28-398, isoform K150, I228, K255 (GenBank AAI12944.2); Cysteine in the predicted turn region between the pore-lining region and the ZIP domain, outside the ZIP domain; source: E. coli BL21-DE3-RIPL, purified (nickel-chelate chromatography, SEC); not shown: His6, N-terminal, kept
binding result [1]: binds

B3: APOL1 LZA A375C (natural protein, human, UniProt O14791 28-398, looked up)
chain: B1 chain with L344A, A348C, L351A, L358A, L365A
notes: Apolipoprotein L-I (APOL1) G0, human, aa 28-398, isoform K150, I228, K255 (GenBank AAI12944.2), every d position leucine of the ZIP domain to alanine plus A375C; Disulfide dimers were already present in the starting material (formed during purification); source: E. coli BL21-DE3-RIPL, purified (nickel-chelate chromatography, SEC); not shown: His6, N-terminal, kept
stoichiometry N [2]: 2

B4: APOL1 A375C (natural protein, human, UniProt O14791 28-398, looked up)
chain: B1 chain with A348C
notes: Apolipoprotein L-I (APOL1) G0, human, aa 28-398 (without the signal peptide), most common isoform K150, I228, K255 (GenBank AAI12944.2); Cysteine at the a position of the C-terminal leucine zipper (ZIP) domain; APOL1 has no endogenous cysteines; Stored with 1 mM DTT in the SEC buffer; also called apolipoprotein L-I A375C; source: E. coli BL21-DE3-RIPL, purified (nickel-chelate chromatography, …)
stoichiometry N [1]: 2

B5: APOL1 LZA 1 (natural protein)
chain: B1 chain with L344A
trypanosome lysis (T. b. brucei, 24 h), IC50 (APOL1 LZA 1 (human)): 0.6 µg/mL

Source: publication PMC8446801, “Coiled-coil binding of the leucine zipper domains of APOL1 is necessary for the open cation channel conformation” (The Journal of Biological Chemistry, 2021)
